Target: T1, mac251 gp120 (Immune Technology Corp.) (SIV mac251, UniProt P08810 20-527)
T1 construct: Coated on ELISA plates at 2 ug/mL; also called SIV mac251 gp120
T1 sequence: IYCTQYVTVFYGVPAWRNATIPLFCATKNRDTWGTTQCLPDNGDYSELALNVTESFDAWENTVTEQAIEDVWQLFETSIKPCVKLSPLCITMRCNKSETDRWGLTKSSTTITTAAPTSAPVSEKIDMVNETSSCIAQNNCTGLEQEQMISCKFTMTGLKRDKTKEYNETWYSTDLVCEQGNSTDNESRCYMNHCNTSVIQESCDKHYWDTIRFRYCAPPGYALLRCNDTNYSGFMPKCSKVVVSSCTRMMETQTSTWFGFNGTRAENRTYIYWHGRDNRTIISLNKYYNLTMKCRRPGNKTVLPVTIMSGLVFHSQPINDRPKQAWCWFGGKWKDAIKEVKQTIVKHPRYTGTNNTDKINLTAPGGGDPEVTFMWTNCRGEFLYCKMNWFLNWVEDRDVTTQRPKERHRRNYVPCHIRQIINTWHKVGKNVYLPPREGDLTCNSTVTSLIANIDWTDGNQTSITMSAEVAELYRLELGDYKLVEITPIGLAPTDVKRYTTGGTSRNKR
Experiment: ELISA, mac251 gp120 coated at 2 ug/mL, immunoadhesin at 50 ng/mL, detected with anti-human IgG-biotin and streptavidin-HRP

Binder	binding result
rhesus macaque anti-SIV mac251 gp120 IgG-201 immunoadhesin (201IA) (Fc fusion, also called 201 anti-SIV immunoadhesin; 201IA standard protein produced in-house) EVQLLESGPGLVKPSETLSLTCAVSGLSISSDFSWAWIRQTPGKALEYVGYIRGNTGDTYYNPSLKSRLTISKDTSKNQIYLNLSSVTAGDAAVYYCARDRVCDDDYGYYYTEVCFGLDSWGQGIVVTVSSGGGGSGGGGSGGGGSAELVMTQSPLSLSVAPGQTASISCRSSQSLDYANGNTYLSWFHQRPGQPPRRLIYQISNRDSGVPDRFSGSGAGTEFTLRISRMESDDVGIYYCGQGTTFPRTFGQGTKVEIKTCGGGSKPPTCPPCTSPELLGGPSVFLFPPKPKDTLMISRTPEVTCVVVDVSQEDPDVKFNWYVNGAEVHHAQTKPRETQYNSTYRVVSVLTVTHQDWLNGKEYTCKVSNKALPAPIQKTISKDKGQPREPQVYTLPPSREELTKNQVSLTCLVKGFYPSDIVVEWESSGQPENTYKTTPPVLDSDGSYFLYSKLTVDKSRWQQGNVFSCSVMHEALHNHYTQKSLSLSPGK	binds
201IA(I253A) (Fc fusion, No leader limits are stated; Expressed in HEK293 cells and purified on Protein A; also called I253A 201IA mutant) EVQLLESGPGLVKPSETLSLTCAVSGLSISSDFSWAWIRQTPGKALEYVGYIRGNTGDTYYNPSLKSRLTISKDTSKNQIYLNLSSVTAGDAAVYYCARDRVCDDDYGYYYTEVCFGLDSWGQGIVVTVSSGGGGSGGGGSGGGGSAELVMTQSPLSLSVAPGQTASISCRSSQSLDYANGNTYLSWFHQRPGQPPRRLIYQISNRDSGVPDRFSGSGAGTEFTLRISRMESDDVGIYYCGQGTTFPRTFGQGTKVEIKTCGGGSKPPTCPPCTSPELLGGPSVFLFPPKPKDTLMASRTPEVTCVVVDVSQEDPDVKFNWYVNGAEVHHAQTKPRETQYNSTYRVVSVLTVTHQDWLNGKEYTCKVSNKALPAPIQKTISKDKGQPREPQVYTLPPSREELTKNQVSLTCLVKGFYPSDIVVEWESSGQPENTYKTTPPVLDSDGSYFLYSKLTVDKSRWQQGNVFSCSVMHEALHNHYTQKSLSLSPGK	binds
